Measurements reported in the DeepSol protein solubility set.

Assay: soluble on expression in E. coli; label from the status in PepcDB or PDB records

Sequence	soluble on expression in E. coli
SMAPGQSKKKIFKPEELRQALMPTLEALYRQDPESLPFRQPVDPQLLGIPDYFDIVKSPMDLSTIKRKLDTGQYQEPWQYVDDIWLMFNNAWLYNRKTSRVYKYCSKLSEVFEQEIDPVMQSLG	soluble
MEDRREALISKLMNMLVENGFSVSGTGFQPVATFDIVARRDVERYILKVLYNIDTLKQSTAYQLIKLAKLLRATAAIIGERTGNGQLEDGVVYYRHGVPISSVNTFESYLNGERPYIYSGPGGFYVRINGELLRERRNELNLSIGNISSYLGVSRRSVSLYENGSAATIDIFIRLRNILKADIVDHIDLFRINSTEINFEEKISDEYIARIIWLLQKYGLDTRPIFKVPFDIVAKDSDEISLIAALIGDAPEPERVRILKKISDVFEDDAFLVSKSNTYRESIGGCAVLTISDLESIEDKDALIGKIEKRAK	not soluble
WVQPITAQKPSLTLWLDDKMFTGLINTGADVTIIKLEDWPPNWPITDTLTNLRGIGQSNNPKQSSKYLTWRDKENNSGLIKPFVIPNLPVNLWGRDLLSQMKIMMAS	soluble
DIHPYSVSYSWDKQVEDEDHMEVFPAGSSFPSTKLITLNRTGDFSMAASYTDITQLPPNTPEQIANWEITGVQLPEGQDSVPVKLKLRCDPSGLHTIEEAYTIEDIEVEEPIPLPEDAPEDAEQEFKKVTKTVKKDDLTIVAHTFGLDAKKLNELIEKENEMLAQDKLVAETEDRKNTLE	not soluble
VNKSELIEAIAQEADISKAAAQKALDATTNAVTTALKQGDTVTLVGFGTFYVGERAERQGRNPKTGEPLTIAAAKTPKFRAGKALKDAL	soluble
MSLDLKEIVQAGAFDLHIHTTASDGEYSPTAIVKKAKEIGLRTIAITDHDTLDGIEEAVIAGKRHGINVIPAIELTTKYKGTNVDILGYNVKASEKLQAILVQLKKHREGRAMQIIEKFNDIGFTITLDEVKQFSEDGVIARPHIAKAIVKKGYVLDYQTVFDEYLADGKPCAIDKMILTPEEGIKLIHEAGGKAILAHPVYLEDTLVRELLALDFDGIEVWHRNHDETDQEKYKMLATEFALIKTGGSDFHTDEHSLGQFGWKADEEGHHHHHH	soluble
MDKQHFKLWYFQFRGRAEPIRLLLTCAGVKFEDYQFTMDQWPTIKPTLPGGRVPLLDVTGPDGKLRRYQESMAIARLLARQFKMMGETDEEYYLIERIIGECEDLYREVYTIFRTPQGEKEAKIKEFKENNGPTLLKLVSESLESSGGKHVAGNRITLGDLFLFTTLTHVMETVPGFLEQKFPKLHEFHKSLPTSCSRLSEYLKKRAKTPF	soluble
GYDCLGYYQNQEDIMNSPKRQSSVNLGAGDLKYNDFNGDGIIDGSDQHRIGKNSMPRGQYGFSADLNYKGWFMNMLWQGATPADLYMGGMIQGSQSGSGYPPVIYDFQTDVWTPNNTGARYPRLRSTASYNGSNNYGSSDFWLINTGYLRLKTLSIGYDFKHKLLKRVAWMNKCNVSLNGYNLLTFSKANKFDIDPEIGDGNLYTYPVSRVYSISVNVGF	not soluble
MNWLDICSLDEINPLGSRVVAGPKGDIAIFRAADDQVFALDDRCPHKGGPLSQGLIYGKRVACPLHNWQIELESGEAVAPDQGCAHRHPVRVENGRVLLGLDSVALCA	not soluble
MDAAKDLRMTQLLQDPHSVREEREKVLEVAIGREVRAFRKQQGITVAELSKLTDLSIGMLSKIENGNTSPSLTTLQTLANALSVPLTAFFKGYEEKREAIHTKAGQGLEIERAGTRAGHQYSLLGHIGSNSSGVIVEPYLITLSTESDTFKTFQHDGIEMIYMLEGKVDYLHGSEIYPLEPGDTLFFDADAPHGPERLVELPTRYLSVICYPQQKKG	not soluble
MAHHHHHHMRGQSSFSSIGEKPNALRDANDVTPMDTRHLHATCAAEEITHNTGANKKRQRGCRTPLMNAGDGSSIHSATSHQSSQAAHRTADAPSDISNRPTQSSGRAMELIRQRRSTVVRRITDIPALGQSHKEGERCGLINVGAVNVEAENAPSEQFSTFFSFFFFCRTHEQPMNEESCAALLVGILEVAPSTRPRHTRMLRSTLEMNRTPLEMVILGLQKIASRWETKQARPLTKEWLNQPIRSRTDWKERVVFRLVWITASRLFEIVALTPKNVTLEPNGTLILYWPVAPKTARADPHCASRFVGMRGQDAFDIIKLCMTL	not soluble
AVPFVEDWDLVQTLGEGAYGEVQLAVNRVTEEAVAVKIVDMKRAVDCPENIKKEICINKMLNHENVVKFYGHRREGNIQYLFLEYCSGGELFDRIEPDIGMPEPDAQRFFHQLMAGVVYLHGIGITHRDIKPENLLLDERDNLKISDFGLATVFRYNNRERLLNKMCGTLPYVAPELLKRREFHAEPVDVWSCGIVLTAMLAGELPWDQPSDSCQEYSDWKEKKTYLNPWKKIDSAPLALLHKILVENPSARITIPDIKKDRWYNKPLKKG	soluble
MPRIEDRLINRTPRNFTIIGNSPNSMSRGKRPHTTPIEVHLLREGIIESQHWAEATVYDDRGRVLMLAGDSTSNAFIRSSLKPFQALAVTSTGTMERYGLTDKDLAIMCGSHQGTIEQARQVFNILWRADIEPQALQCPIPAGQESPLYHGCSGKHAGMLAVCQQQDWPLHSYLQQNSPIQKLILSKVADLLGMPGAELIAAHDDCGAPTYTMELGQIAHLYALLASGQQLGLERVARAMTYYPYFVAGEGCFDTELMQQMEGELVSKSGAEGVQCVGRVGEGLGLAIKVKDGSKRAKYAVAIHLLQQMGWIPPQVAETLSEKFVRLGKYKRLEVIGELAMLLEHHHHHH	not soluble
MIDTTVFQNKTAVYYTLGCKLNFSETSTIGKILREAGVRTARKGEKADICVVNTCSVTEMADKKCRQAIHRLVKQHPGAFVVVTGCYAQLKPGDVAKIKGVDVVLGAEQKGDLLQYLGDLHKHEEGEAFTTTTKDIRSFSPSCSRGDRTRFFLKVQDGCDYFCSYCTIPFARGRSRNGTVASMVEQARQAAAEGGKEIVLTGVNIGDFGKTTGETFFDLVKALDQVEGIERYRISSIEPNLLTDEIIEFVSRSRRFMPHFHIPLQSGCDEVLKLMRRRYDTALFASKVKKIKEVMPDAFIGVDVIVGTRGETEEYFEQAYQFISGLDVTQLHVFSYSERPGTQALKIDYVVSPEEKHQRSQRLLTLSDEKTRAFYTRHIGQTMQVLMEKSKAGTPMHGFTANYIRVEVENDESLDNQMINVRLGEFNEDMTALKGTILMNYEV	not soluble
MHATSRVAWFWRPSCQSFIRKMPCRPIVLSGPSGGGKSTILTRAMQEYPNSFAFSVSHTTRQPRAGEEHGKHYYFTEKEKMQEMIKNNEFLEFATFSGNTYGTSKKTVLEIENSGKICVLDIELQGVRNIKNSHLDARYILIRAPSIKLLEERLRARGTETEESLSKRLQHASEDLVEIEKNPTLFDKVIVNDDLERAYKEFVDLLRDDLEKTSKK	not soluble
MGSDKIHHHHHHMSQMSFSDFEYAGKRKQTRRERFLAEMDQVVPWAGLLGLIEPFYPKAGGGRKPYPLETMLRIHLLQNWFSLSDPAMEEALYEITPMRQFAHLTLSAPIPEDTTIMNFRHLLEKHQLAPAILAVINGYLQEKGLSLRQGTIVDATIIHVPSSTKNKDGERDPEMHQTKKGNQYFFGMKAHISADVESGLVHHVHGTAANVADVTQVAELLHGEENAVYADAGYTGVEKREEHENRDVIWQIAARRSTYSKLNKRSLLYKAKRKIEYCKAQTRAKVEHPFRVIKRQFGYVKVRFRGLMKNTAQLTTLFALSNLWMARKRLMGLGELRI	not soluble
QEQLVESGGRLVTPGTALTLTCKVSGFSLSGFWLNWVRQAPGKGLEWVGAIYRGSGSEWYASWAKGRFTISDTSTTVTLKLTSPTTEDTATYFCAADTTDNGYFTIWGPGTLVTVSSASTKGPSVFPLAPSAKSTSGGTAALGCLVKDYFPEPVTVSWNSGALTSGVHTFPAVLQSSGLYSLSSVVTVPSSSLGTQTYICNVNHKPSNTKVDKKAEPKSCDKTRGHHHHHH	soluble
MGSDKIHHHHHHMLEIGFCTLEDQCPYLKDKRSRIEYKYIENCPKEINNELIKRGWRRFGRYFSRPICKDCDECLSLRILVNEYNFSRSERRVVNKNINTKVILRTPNLSNEHLFLYDKYHRFMEEKKNWKRYDLSFKQYYNLYVDGFMNFGYELAFYIEDKLVCVDLIDILEDGISSIYCFYDPDFSYFSLGKFSLLNEIQIAKKMNLDYIYLGYFVKKCQSLSYKADYTPNEILKGTKELFENEVLWEK	not soluble
